Results on one protein are retold here after FireProtDB (doi:10.1074/jbc.274.53.37533).

For this series the following is noted: Pseudomonas aeruginosa (strain ATCC 15692 / DSM 22644 / CIP 104116 / JCM 14847 / LMG 12228 / 1C / PRS 101 / PAO1), CD, HCl, whole UniProt chain shown.

B1: Cytochrome c-551 wild type, P00099 (protein)
chain: MKPYALLSLLATGTLLAQGAWAEDPEVLFKNKGCVACHAIDTKMVGPAYKDVAAKFAGQAGAEAELAQRIKNGSQGVWGPIPMPPNAVSDDEAQTLAKWVLSQK
A word on the Tm: it is the temperature at the midpoint of the melting transition. Turning to B1, under “pH 5, 25 °C, GdnHCl”, the denaturant m value turned out to be 2.17 kcal/mol/M and the “denaturant midpoint (higher = more stable)” value was 2.25 M. For the same protein, for the setting “pH 5, Thermal”, the Tm amounted to 50.4 °C and the “unfolding enthalpy (van 't Hoff)” value turned out to be 37.6 kcal/mol.
